Measured values taken from patent US20190225669A1 (ACCELERON PHARMA, published 2019).
Where two headings read alike, the source gives them in different places.

T1: BMP5 (UniProt P22003 317-454, limits assumed)
T1 sequence (looked up): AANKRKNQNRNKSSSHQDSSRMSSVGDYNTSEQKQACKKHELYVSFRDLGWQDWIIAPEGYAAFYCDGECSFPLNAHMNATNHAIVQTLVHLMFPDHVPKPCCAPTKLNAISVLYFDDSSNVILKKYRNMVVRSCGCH

T2: BMP6 (UniProt P22004 382-513, limits assumed)
T2 sequence (looked up): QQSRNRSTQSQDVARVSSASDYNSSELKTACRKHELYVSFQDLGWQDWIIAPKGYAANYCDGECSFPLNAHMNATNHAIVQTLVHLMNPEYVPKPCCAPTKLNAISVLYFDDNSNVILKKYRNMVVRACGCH

T3: BMPRII-Fc homodimer (UniProt Q13873 27-150)
T3 construct: extracellular domain
T3 sequence (looked up): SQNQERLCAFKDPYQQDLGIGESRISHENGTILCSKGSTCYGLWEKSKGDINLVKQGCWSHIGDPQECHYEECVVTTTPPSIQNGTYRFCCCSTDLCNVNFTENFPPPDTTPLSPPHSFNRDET

T4: ActRIIB-Fc homodimer (UniProt Q13705 19-137)
T4 construct: extracellular domain; also called ActRIIB homodimer
T4 sequence (looked up): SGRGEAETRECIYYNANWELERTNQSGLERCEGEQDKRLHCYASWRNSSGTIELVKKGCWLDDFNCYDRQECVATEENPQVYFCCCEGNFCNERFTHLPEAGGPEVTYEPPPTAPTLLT

B1: ALK3-Fc homodimer (Fc fusion, UniProt P36894 24-152, looked up, not shown: a dimerising Fc or GST)
chain: QNLDSMLHGTGMKSDSDQKKSENGVTLAPEDTLPFLKCYCSGHCPDDAINNTCITNGHCFAIIEEDDQGETTLASGCMKYEGSDFQCKDSPKAQLRRTIECCRTNLCNQYLQPTLPPVVIGPFFDGSIR
notes: extracellular domain

Key:
Experiment in all cases: Biacore SPR
[1] = target: B1
Protocol: (§1) Ligands were injected and allowed to flow over the captured receptor protein.

[2] = target: B1; remark: listed apart in the source
Protocol: as §1

[3] = target: T1, BMP5
Protocol: as §1

[4] = target: T2, BMP6
Protocol: as §1

[5] = target: T1, BMP5; remark: listed apart in the source
Protocol: as §1

[6] = target: T2, BMP6; remark: listed apart in the source
Protocol: as §1

[7] = target: T3, BMPRII-Fc homodimer
Protocol: A Biacore™-based binding assay was used to compare ligand binding selectivity of the BMPRII-Fc:ALK2-Fc heterodimeric complex described above with that of BMPRII-Fc and ALK2-Fc homodimeric complexes. […] Ligands were injected and allowed to flow over the captured receptor protein.

[8] = target: T3, BMPRII-Fc homodimer; remark: listed apart in the source
Protocol: as §1

[9] = target: T4, ActRIIB-Fc homodimer
Protocol: as §1

[10] = target: T5, ActRIIA-Fc homodimer (UniProt P27037 20-135)
T5 construct: extracellular domain
Protocol: as §1

[11] = target: T4, ActRIIB-Fc homodimer; remark: listed apart in the source
Protocol: as §1

[12] = target: T4, ActRIIB-Fc homodimer; remark: listed apart in the source
Protocol: as §1

[13] = target: T4, ActRIIB-Fc homodimer; remark: listed apart in the source
Protocol: as §1

[14] = target: T3, BMPRII-Fc homodimer; remark: listed apart in the source
Protocol: as §1

[15] = target: T4, ActRIIB-Fc homodimer; remark: listed apart in the source
Protocol: as §1

[16] = target: T3, BMPRII-Fc homodimer; remark: listed apart in the source
Protocol: as §1

T5 sequence (P27037 20-135): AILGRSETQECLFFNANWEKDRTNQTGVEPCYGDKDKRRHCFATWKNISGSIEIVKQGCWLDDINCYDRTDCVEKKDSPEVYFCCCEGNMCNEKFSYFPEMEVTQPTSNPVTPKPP

Kd [7] [pM]	Kd [9] [pM]	koff [9] [s⁻¹]	kon [9] [M⁻¹ s⁻¹]	binding result [1]	Kd [10] [pM]	koff [10] [s⁻¹]	kon [10] [M⁻¹ s⁻¹]	Kd [11] [pM]	koff [11] [s⁻¹]	kon [11] [M⁻¹ s⁻¹]	Kd [12] [pM]	koff [12] [s⁻¹]	kon [12] [M⁻¹ s⁻¹]	Kd [13] [pM]	koff [13] [s⁻¹]	kon [13] [M⁻¹ s⁻¹]	Kd [15] [pM]	koff [15] [s⁻¹]	kon [15] [M⁻¹ s⁻¹]	Binder	also measured
																				GDF5 (ligand, UniProt P43026 382-501, looked up, also called BMP14) APLATRQGKRPSKNLKARCSRKALHVNFKDMGWDDWIIAPLEYEAFHCEGLCEFPLRSHLEPTNHAVIQTLMNSMDPESTPPTCCVPTRLSPISILFIDSANNVVYKQYEDMVVESCGCR	Kd [1]: 22000 pM; koff [1]: 0.011 s⁻¹; kon [1]: 480000 M⁻¹ s⁻¹; Kd [2]: 22000 pM; koff [2]: 0.011 s⁻¹; kon [2]: 430000 M⁻¹ s⁻¹
																				B1	Kd [3]: 70000 pM; koff [3]: 0.002 s⁻¹; kon [3]: 29000 M⁻¹ s⁻¹; Kd [4]: 35000 pM; koff [4]: 0.0049 s⁻¹; kon [4]: 140000 M⁻¹ s⁻¹; Kd [5]: 70000 pM; koff [5]: 0.0023 s⁻¹; kon [5]: 29000 M⁻¹ s⁻¹; Kd [6]: 35000 pM; koff [6]: 0.0049 s⁻¹; kon [6]: 140000 M⁻¹ s⁻¹
2600	20	0.0001	5.1e+06	no binding	10	0.00011	1.1e+07	28	0.00011	3.8e+06	8	0.00016	1.5e+07	20	0.0001	5.1e+06	20	0.0001	5.1e+06	activin B (ligand, UniProt P09529 293-407, looked up) GLECDGRTNLCCRQQFFIDFRLIGWNDWIIAPTGYYGNYCEGSCPAYLAGVPGSASSFHTAVVNQYRMRGLNPGTVNSCCIPTKLSTMSMLYFDDEYNIVKRDVPNMIVEECGCA	koff [7]: 0.0049 s⁻¹; kon [7]: 1.9e+06 M⁻¹ s⁻¹; Kd [8]: 3800 pM; koff [8]: 0.075 s⁻¹; kon [8]: 2e+07 M⁻¹ s⁻¹; Kd [14]: 3800 pM; koff [14]: 0.075 s⁻¹; kon [14]: 2e+07 M⁻¹ s⁻¹
	2	0.00011	5e+07	no binding	13	0.00092	7.3e+07	110	0.00022	2e+06	2	0.00015	9.6e+07	2	0.00011	5e+07	74	0.00014	1.9e+06	GDF11 (ligand, UniProt O95390 299-407, looked up, also called BMP11) NLGLDCDEHSSESRCCRYPLTVDFEAFGWDWIIAPKRYKANYCSGQCEYMFMQKYPHTHLVQQANPRGSAGPCCTPTKMSPINMLYFNDKQQIIYGKIPGMVVDRCGCS	
130	4	0.0002	5.9e+07	no binding	85	0.0025	2.9e+07	5	0.00028	5.4e+07	25	0.00015	5.9e+06	11	0.00026	2.3e+07	18	0.00038	2.1e+07	BMP10 (ligand, UniProt O95393 317-424, looked up) NAKGNYCKRTPLYIDFKEIGWDSWIIAPPGYEAYECRGVCNYPLAEHLTPTKHAIIQALVHLKNSQKASKACCVPTKLEPISILYLDKGVVTYKFKYEGMAVSECGCR	koff [7]: 0.005 s⁻¹; kon [7]: 3.8e+07 M⁻¹ s⁻¹; Kd [8]: 100 pM; koff [8]: 0.0025 s⁻¹; kon [8]: 2.6e+07 M⁻¹ s⁻¹; Kd [16]: 100 pM; koff [16]: 0.0025 s⁻¹; kon [16]: 2.6e+07 M⁻¹ s⁻¹; Kd [14]: 100 pM; koff [14]: 0.0025 s⁻¹; kon [14]: 2.6e+07 M⁻¹ s⁻¹
	1400	0.0023	1.6e+06	no binding	2400	0.0036	1.5e+06	1700	0.002	1.2e+06	1500	0.0022	1.4e+06	1500	0.0022	1.4e+06	3900	0.0018	470000	GDF3 (ligand, UniProt Q9NR23 251-364, looked up) AAIPVPKLSCKNLCHRHQLFINFRDLGWHKWIIAPKGFMANYCHGECPFSLTISLNSSNYAFMQALMHAVDPEIPQAVCIPTKLSPISMLYQDNNDNVILRHYEDMVVDECGCG	
